The values below come from paper PMC8053111, “MKRN3-mediated ubiquitination of Poly(A)-binding proteins modulates the stability and translation of GNRH1 mRNA in mammalian puberty” (Nucleic Acids Research, 2021).

One data set addresses PABPC1 (human, UniProt P11940 1-636). The experiment in a line: EMSA; unmodified; EMSA Binding Buffer (Beyotime, 5x stock; composition, salt and pH not given), room temperature, 1 h; 8% polyacrylamide 0.5x TBE gel. The note with it: protein: recombinant; tags: Flag-His6 (pET28a-PABPC1-Flag-His6); label: 32P (gamma-32P, stated at 3' end by T4 PNK); single strand. (In general: Mobility shift assays separate free from complexed probe on a gel.)

The target in a further data set is PABPC4 (human, UniProt Q13310 1-644). The data set is described as above. The note with it: protein: recombinant; tags: Flag-His6 (pET28a-PABPC4-Flag-His6); label: 32P (gamma-32P, stated at 3' end by T4 PNK); single strand.
PABPC4, sequence (Q13310 whole entry): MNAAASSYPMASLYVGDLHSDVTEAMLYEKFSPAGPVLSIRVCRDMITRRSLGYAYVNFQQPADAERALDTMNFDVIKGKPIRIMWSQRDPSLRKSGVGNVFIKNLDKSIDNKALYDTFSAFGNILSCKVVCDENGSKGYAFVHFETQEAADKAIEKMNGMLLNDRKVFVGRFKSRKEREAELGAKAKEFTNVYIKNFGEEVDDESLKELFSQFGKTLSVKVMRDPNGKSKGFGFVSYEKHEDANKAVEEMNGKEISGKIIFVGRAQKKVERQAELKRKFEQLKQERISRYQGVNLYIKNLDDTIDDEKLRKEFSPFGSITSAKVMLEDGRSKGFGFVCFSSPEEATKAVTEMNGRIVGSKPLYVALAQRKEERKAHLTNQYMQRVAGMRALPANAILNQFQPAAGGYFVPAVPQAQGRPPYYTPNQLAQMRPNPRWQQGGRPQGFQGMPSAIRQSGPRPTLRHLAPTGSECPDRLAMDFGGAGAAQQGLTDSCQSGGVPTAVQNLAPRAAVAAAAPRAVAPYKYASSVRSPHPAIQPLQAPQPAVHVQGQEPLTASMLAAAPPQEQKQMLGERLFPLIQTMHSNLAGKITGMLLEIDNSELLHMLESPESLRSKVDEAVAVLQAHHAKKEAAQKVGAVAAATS
The next data set addresses T1, PABPC1-His6 (human, UniProt P11940 1-636).
T1 construct: PABPC1, human, full length; Written PABPC1-His6; also called His6-tagged PABPC1; full length PABPC1; source: E. coli BL21, purified (Ni beads, eluted with imidazole, dialyzed)
Briefly: pull-down; GST pull-down: 20 μg purified Gst-MKRN or MKRN3 truncation, 20 μg PABP-His6 or truncation and Glutathione Sepharose 4B, 4°C overnight in 500 μl of 20 mM Tris-Cl, 100 mM NaCl, 5 mM MgCl2, 1 mM EDTA, 1 mM DTT, 0.5% NP-40, 10 μg/ml BSA, pH 7.5; five washes; Coomassie staining and anti-His immunoblot. The note with it: both partners purified. In general terms: In western blotting, separated proteins are transferred to a membrane and probed.

The target of the next data set is T2, PABPC3-His6 (human, UniProt Q9H361 1-631).
T2 construct: PABPC3, human; also called His6-tagged PABPC3; source: E. coli BL21, purified (Ni beads, eluted with imidazole, dialyzed)
T2 sequence (Q9H361 whole entry): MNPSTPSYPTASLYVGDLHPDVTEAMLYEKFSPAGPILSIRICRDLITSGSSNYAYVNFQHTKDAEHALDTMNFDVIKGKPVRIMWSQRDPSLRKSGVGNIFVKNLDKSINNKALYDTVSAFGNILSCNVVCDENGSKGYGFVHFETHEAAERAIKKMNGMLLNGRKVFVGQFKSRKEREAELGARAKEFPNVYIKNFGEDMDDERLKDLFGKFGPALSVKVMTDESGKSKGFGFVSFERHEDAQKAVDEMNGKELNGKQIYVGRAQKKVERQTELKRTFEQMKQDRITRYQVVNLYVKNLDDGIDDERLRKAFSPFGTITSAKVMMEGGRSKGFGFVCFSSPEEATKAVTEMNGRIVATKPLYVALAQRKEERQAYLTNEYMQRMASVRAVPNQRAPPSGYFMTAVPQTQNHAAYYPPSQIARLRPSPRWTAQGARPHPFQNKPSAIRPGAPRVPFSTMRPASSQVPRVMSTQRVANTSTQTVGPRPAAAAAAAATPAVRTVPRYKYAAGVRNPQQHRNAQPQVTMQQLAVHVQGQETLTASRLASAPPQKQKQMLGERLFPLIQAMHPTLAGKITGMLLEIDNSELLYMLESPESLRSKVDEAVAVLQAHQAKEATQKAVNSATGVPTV
The description is as above. The note with it: both partners purified.

T1 sequence (P11940 whole entry): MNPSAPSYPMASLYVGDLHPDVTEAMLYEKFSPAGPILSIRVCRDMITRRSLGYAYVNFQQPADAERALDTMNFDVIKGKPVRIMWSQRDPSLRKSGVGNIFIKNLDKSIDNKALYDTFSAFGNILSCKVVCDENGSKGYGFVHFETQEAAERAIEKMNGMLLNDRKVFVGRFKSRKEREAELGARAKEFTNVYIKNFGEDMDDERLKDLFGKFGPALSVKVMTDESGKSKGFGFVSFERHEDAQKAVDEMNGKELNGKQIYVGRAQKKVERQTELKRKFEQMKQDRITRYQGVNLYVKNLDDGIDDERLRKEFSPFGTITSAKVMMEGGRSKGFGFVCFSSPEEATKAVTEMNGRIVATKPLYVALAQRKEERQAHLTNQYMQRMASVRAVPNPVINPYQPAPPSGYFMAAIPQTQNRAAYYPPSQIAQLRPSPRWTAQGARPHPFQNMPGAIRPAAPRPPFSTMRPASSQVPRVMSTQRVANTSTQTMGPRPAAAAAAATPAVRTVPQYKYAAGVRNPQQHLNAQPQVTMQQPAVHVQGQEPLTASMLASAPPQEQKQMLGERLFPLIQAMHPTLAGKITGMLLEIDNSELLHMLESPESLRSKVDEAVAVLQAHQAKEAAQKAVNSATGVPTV
PABPC1, sequence (P11940 whole entry): as above

Turning to AAAAAAAAAAAAAAAAAAAAAAAAAAAAAA (ssRNA) [(A)30 RNA], the binding result in the data set with PABPC1 and with PABPC4 was “binds” in each case.

B1: Gst-MKRN3 middle region (126-295aa) (domain or fragment, human, UniProt Q13064 126-295, looked up)
chain: MATEGGVSPPGASAGGGPSTAAHIEPPTQEVAEAPPAASSLSLPVIGSAAERGFFEAERDNADRGAAGGAGVESWADAIEFVPGQPYRGRWVASAPEAPLQSSETERKQMAVGSGLRFCYYASRGVCFRGESCMYLHGDICDMCGLQTLHPMDAAQREEHMRACIEAHEK
notes: source: E. coli BL21, purified (glutathione beads, eluted with reduced glutathione, dialyzed)
As to B1, the binding result in the data set with PABPC1-His6 is on record as “binds”.

B2: recombinant Gst-tagged MKRN3 (natural protein, human, UniProt Q13064 1-507, looked up)
chain: MEEPAAPSEAHEAAGAQAGAEAAREGVSGPDLPVCEPSGESAAPDSALPHAARGWAPFPVAPVPAHLRRGGLRPAPASGGGAWPSPLPSRSSGIWTKQIICRYYIHGQCKEGENCRYSHDLSGRKMATEGGVSPPGASAGGGPSTAAHIEPPTQEVAEAPPAASSLSLPVIGSAAERGFFEAERDNADRGAAGGAGVESWADAIEFVPGQPYRGRWVASAPEAPLQSSETERKQMAVGSGLRFCYYASRGVCFRGESCMYLHGDICDMCGLQTLHPMDAAQREEHMRACIEAHEKDMELSFAVQRGMDKVCGICMEVVYEKANPNDRRFGILSNCNHSFCIRCIRRWRSARQFENRIVKSCPQCRVTSELVIPSEFWVEEEEEKQKLIQQYKEAMSNKACRYFAEGRGNCPFGDTCFYKHEYPEGWGDEPPGPGGGSFSAYWHQLVEPVRMGEGNMLYKSIKKELVVLRLASLLFKRFLSLRDELPFSEDQWDLLHYELEEYFNLIL
notes: MKRN3, human, full length; Written Gst-MKRN3; also called Gst-MKRN3; full length MKRN3; source: E. coli BL21, purified (glutathione beads, eluted with reduced glutathione, dialyzed)
Regarding B2, the binding result with PABPC1-His6 and in the data set with PABPC3-His6 was “binds” each time.
